For this assay, the system named is acutely dissociated TG neurons. Briefly: Calcium imaging, PRL effect on capsaicin-evoked Ca2+ influx. Format: cell-based, rat. The text has this:
The binding of PRL to the PRL-R activates a variety of intracellular signaling pathways in non-neuronal cells (Bole-Feysot et al. 1998), some of which are known to be involved in the sensitization of TRPV1 in nociceptors (Cesare and McNaughton, 1996). To evaluate whether PRL sensitizes capsaicin activation of TRPV1, changes in calcium (Ca^2+) influx were quantified in acutely dissociated TG neurons. FIG. 4A depicts the results of Ca^2+ imaging experiments performed in acutely dissociated TG neurons. Data are presented as mean % of vehicle±SEM (n=30/group, ***=p<0.001; two-way ANOVA). FIG. 4B depicts representative traces of Ca^2+ imaging experiments performed in neurons from proestrous rats. Neurons were treated with 40 nM PRL or vehicle for 10 min followed by a 40 sec capsaicin (30 nM) application. […] Data are presented as mean F340/F380±SEM (n=8/group; error bars are SEM). […] PRL appears to increase the magnitude of capsaicin-evoked Ca^2+ influx in TG neurons by about 71% compared to that observed in TG neurons not exposed to PRL, whereas PRL had no effect on capsaicin-evoked calcium influx in neurons from OVX control rats (FIG. 4A). […]
Calcium Imaging: TG cells cultured on coverslips were loaded with the cell-permeable calcium sensitive dye FURA 2-AM (1 ug/ml) (Molecular Probes, Eugene, Oreg.) for 30 min at 37° C. in Standard External Solution (SES) of the following composition in mM: 140 NaCl, 5 KCl, 2 CaCl2, 1 MgCl2, 10 glucose and 10 HEPES, pH 7.4. […] Fluorescence images were collected in 5 sec intervals throughout the experiment, analyzed, and the F340/F380 ratio calculated by the Methafluor Software (MethaMorph, Web Universal Imaging Corporation, Downingtown, Pa.). […] The magnitude of calcium influx was determined by subtracting the averaged baseline 30 sec prior to the capsaicin stimulus from the peak achieved by the capsaicin stimulation for each cell (ratiometric method, ΔF340/F380).

Data on one molecule can be found in patent publication US7507716B2, “Method for treating pain with prolactin antagonists” (Board of Regents, The University of Texas System, priority 2005, dated 2009).

B1: PRL: Ovine PRL [oPRL-21, BIO] provided by NHPP; prolactin polypeptide hormone (protein, UniProt P01240 31-229, looked up)
Prolactin: TPVCPNGPGNCQVSLRDLFDRAVMVSHYIHNLSSEMFNEFDKRYAQGKGFITMALNSCHTSSLPTPEDKEQAQQTHHEVLMSLILGLLRSWNDPLYHLVTEVRGMKGVPDAILSRAIEIEEENKRLLEGMEMIFGQVIPGAKETEPYPVWSGLPSLQTKDEDARHSAFYNLLHCLRRDSSKIDTYLKLLNCRIIYNNNC
B1: the “increase in magnitude of capsaicin-evoked Ca2+ influx” value (PRL 40 nM 10 min, capsaicin 30 nM 40 sec, neurons from intact female rats) is given as “about 71%”. Also, the “effect on capsaicin-evoked calcium influx” value (PRL 40 nM, neurons from OVX control rats) is on record as “had no effect”. Also, the “Ca2+ influx evoked by PRL on its own” value (PRL 40 nM, neurons from proestrous rats) is recorded as “did not evoke Ca^2+ influx on its own”.
